Source: publication PMC2734569, “Functional mapping of the fission yeast DNA polymerase δ B-subunit Cdc1 by site-directed and random pentapeptide insertion mutagenesis” (BMC Molecular Biology, 2009)
Changes are numbered by the printed parent chain.

Tests used:
Assay in all cases: two-hybrid; LexA-Cdc1 bait (pBTM116 or pBTM116BN) with Gal4-Pol3 prey and co-expressed c-myc-tagged Cdc27 (pAA-Cdc27) in S. cerevisiae CTY10-5d; ONPG liquid culture beta-galactosidase assay, mean of triplicates, as percent of wild-type Cdc1
Conditions in all cases: partners not purified
[1] = target: T1, Cdc1-J3 (Schizosaccharomyces pombe, UniProt P87324 1-462, Leu-GlyValProLeuLeu-Asp)
T1 construct: Cdc1, S. pombe, with a pentapeptide inserted after residue 62; also called E3; E8; source: yeast two-hybrid fusion, in S. cerevisiae CTY10-5d
T1 sequence (looked up): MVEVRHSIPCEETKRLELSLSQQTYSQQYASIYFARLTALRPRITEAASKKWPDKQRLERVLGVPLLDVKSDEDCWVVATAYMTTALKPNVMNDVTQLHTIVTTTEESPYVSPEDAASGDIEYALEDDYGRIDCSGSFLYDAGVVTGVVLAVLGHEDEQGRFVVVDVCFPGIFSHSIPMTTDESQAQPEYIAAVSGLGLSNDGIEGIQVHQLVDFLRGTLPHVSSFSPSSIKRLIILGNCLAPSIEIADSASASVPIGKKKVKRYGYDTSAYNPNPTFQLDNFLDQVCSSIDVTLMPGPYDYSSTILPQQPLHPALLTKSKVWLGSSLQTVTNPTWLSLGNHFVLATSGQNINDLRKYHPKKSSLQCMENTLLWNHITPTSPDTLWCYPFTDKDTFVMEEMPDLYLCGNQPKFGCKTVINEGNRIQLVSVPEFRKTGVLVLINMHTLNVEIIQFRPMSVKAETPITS

[2] = target: T2, Cdc1-J12 (Schizosaccharomyces pombe, UniProt P87324 1-462, Ser-GlyValProHisSer-Ile)
T2 construct: Cdc1, S. pombe, with a pentapeptide inserted after residue 7; source: yeast two-hybrid fusion, in S. cerevisiae CTY10-5d
T2 sequence (looked up): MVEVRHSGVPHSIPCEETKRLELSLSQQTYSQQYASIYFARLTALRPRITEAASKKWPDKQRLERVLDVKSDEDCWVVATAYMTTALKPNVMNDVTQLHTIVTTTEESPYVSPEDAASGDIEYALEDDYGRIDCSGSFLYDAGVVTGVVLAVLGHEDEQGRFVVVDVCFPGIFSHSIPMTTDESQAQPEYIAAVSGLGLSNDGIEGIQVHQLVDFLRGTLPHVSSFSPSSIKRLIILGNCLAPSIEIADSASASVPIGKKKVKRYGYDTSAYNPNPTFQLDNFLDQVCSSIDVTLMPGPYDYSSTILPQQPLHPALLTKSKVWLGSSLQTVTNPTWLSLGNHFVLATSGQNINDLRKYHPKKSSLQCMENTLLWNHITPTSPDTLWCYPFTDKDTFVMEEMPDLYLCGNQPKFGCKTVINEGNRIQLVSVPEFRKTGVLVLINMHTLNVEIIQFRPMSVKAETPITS

[3] = target: T3, Cdc1-A5 (Schizosaccharomyces pombe, UniProt P87324 1-462, Asn328Ala)
T3 construct: Cdc1, S. pombe, point mutant; source: yeast two-hybrid fusion, in S. cerevisiae CTY10-5d
T3 sequence (looked up): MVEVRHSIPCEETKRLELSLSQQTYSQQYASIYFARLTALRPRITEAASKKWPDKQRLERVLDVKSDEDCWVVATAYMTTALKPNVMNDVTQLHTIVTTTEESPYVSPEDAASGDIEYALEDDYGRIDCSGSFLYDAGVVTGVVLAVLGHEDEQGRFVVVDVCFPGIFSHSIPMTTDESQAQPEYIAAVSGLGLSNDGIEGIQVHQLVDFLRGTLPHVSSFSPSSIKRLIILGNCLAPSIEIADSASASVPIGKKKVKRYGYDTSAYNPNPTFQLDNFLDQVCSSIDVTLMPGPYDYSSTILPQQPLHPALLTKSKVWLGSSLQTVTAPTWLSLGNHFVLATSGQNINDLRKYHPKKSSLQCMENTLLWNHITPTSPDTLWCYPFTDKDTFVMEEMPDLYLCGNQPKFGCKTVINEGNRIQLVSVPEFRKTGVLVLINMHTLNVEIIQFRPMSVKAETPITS

[4] = target: T4, Cdc1-A1 (Schizosaccharomyces pombe, UniProt P87324 1-462, Pro292Ala)
T4 construct: Cdc1, S. pombe, point mutant; source: yeast two-hybrid fusion, in S. cerevisiae CTY10-5d
T4 sequence (looked up): T3 sequence (looked up) with P292A, A328N

two-hybrid beta-galactosidase activity, % of wild-type Cdc1 [1]: 54%
two-hybrid beta-galactosidase activity, % of wild-type Cdc1 [2]: < 1%
two-hybrid beta-galactosidase activity, % of wild-type Cdc1 [3]: 4%
two-hybrid beta-galactosidase activity, % of wild-type Cdc1 [4]: 39%
B1: Pol3 (fission yeast DNA polymerase delta catalytic subunit) (natural protein, Schizosaccharomyces pombe, UniProt P30316 1-1086, looked up)
chain: MTDRSSNEGVVLNKENYPFPRRNGSIHGEITDVKRRRLSERNGYGDKKGSSSKEKTSSFEDELAEYASQLDQDEIKSSKDQQWQRPALPAINPEKDDIYFQQIDSEEFTEGSVPSIRLFGVTDNGNSILVHVVGFLPYFYVKAPVGFRPEMLERFTQDLDATCNGGVIDHCIIEMKENLYGFQGNEKSPFIKIFTTNPRILSRARNVFERGEFNFEELFPVGVGVTTFESNTQYLLRFMIDCDVVGMNWIHLPASKYQFRYQNRVSNCQIEAWINYKDLISLPAEGQWSKMAPLRIMSFDIECAGRKGVFPDPSIDPVIQIASIVTQYGDSTPFVRNVFCVDTCSQIVGTQVYEFQNQAEMLSSWSKFVRDVDPDVLIGYNICNFDIPYLLDRAKSLRIHNFPLLGRIHNFFSVAKETTFSSKAYGTRESKTTSIPGRLQLDMLQVMQRDFKLRSYSLNAVCSQFLGEQKEDVHYSIITDLQNGTADSRRRLAIYCLKDAYLPQRLMDKLMCFVNYTEMARVTGVPFNFLLARGQQIKVISQLFRKALQHDLVVPNIRVNGTDEQYEGATVIEPIKGYYDTPIATLDFSSLYPSIMQAHNLCYTTLLDSNTAELLKLKQDVDYSVTPNGDYFVKPHVRKGLLPIILADLLNARKKAKADLKKETDPFKKAVLDGRQLALKVSANSVYGFTGATNGRLPCLAISSSVTSYGRQMIEKTKDVVEKRYRIENGYSHDAVVIYGDTDSVMVKFGVKTLPEAMKLGEEAANYVSDQFPNPIKLEFEKVYFPYLLISKKRYAGLFWTRTDTYDKMDSKGIETVRRDNCPLVSYVIDTALRKMLIDQDVEGAQLFTKKVISDLLQNKIDMSQLVITKALSKTDYAAKMAHVELAERMRKRDAGSAPAIGDRVAYVIIKGAQGDQFYMRSEDPIYVLENNIPIDAKYYLENQLSKPLLRIFEPILGEKASSLLHGDHTRTISMAAPSVGGIMKFAVKVETCLGCKAPIKKGKTALCENCLNRSAELYQRQVAQVNDLEVRFARLWTQCQRCQGSMHQDVICTSRDCPIFYMRIAEHKKLQQSVDLLKRFDEMSW
notes: DNA polymerase delta catalytic subunit Pol3, S. pombe; prey plasmid named pACT-Pol3 in the results and pGAD2F-Pol3 in the methods; also called Gal4-Pol3; pACT-Pol3; source: yeast two-hybrid fusion, in S. cerevisiae CTY10-5d
